Measurements: US20230374502A1

Biological target: SpCas9 (Streptococcus pyogenes Cas9) (Streptococcus pyogenes) (UniProt Q99ZW2)
Assay: cell-based or functional assay

Substance “Acx105 (AcrIIA4, wild type; AcrIIA4_lmo)” has an indel frequency (TIDE), OFF - R1, sample E2A-F2A - Acx-105 of 1%, an indel frequency (TIDE), OFF - R1, sample EMCV IRESV5 of 6.6% and an indel frequency (TIDE), OFF - R1, sample EMCV IRESV10 of 5%. It also gave an indel frequency (TIDE), OFF - R1, sample EMCV IRESV15 of 15.8%, an indel frequency (TIDE), OFF - R1, sample EMCV IRESV21 of 12.2% and an indel frequency (TIDE), OFF - R1, sample EMCV WT IRES of 2.3%. For the same substance, the indel frequency (TIDE), OFF - R1, sample F2A - Acx-105 was 0.8%, the indel frequency (TIDE), OFF - R1, sample T2A - Acx-105 was 1.3% and the indel frequency (TIDE), OFF - R1, sample T2A-E2A-F2A - Acx-105 was 0.7%. It also gave an indel frequency (TIDE), ON - R1, sample E2A-F2A - Acx-105 of 2.7%, an indel frequency (TIDE), ON - R1, sample EMCV IRESV5 of 12.5% and an indel frequency (TIDE), ON - R1, sample EMCV IRESV10 of 26.5%. The indel frequency (TIDE), ON - R1, sample EMCV IRESV15 was 54.3%, the indel frequency (TIDE), ON - R1, sample EMCV IRESV21 was 50% and the indel frequency (TIDE), ON - R1, sample EMCV WT IRES was 1.2%. The indel frequency (TIDE), ON - R1, sample F2A - Acx-105 was 1.2%, the indel frequency (TIDE), ON - R1, sample T2A - Acx-105 was 3.4% and the indel frequency (TIDE), ON - R1, sample T2A-E2A-F2A - Acx-105 was 4.5%. It also gave an indel frequency, OFF - R1, Acr start codon ACG of 13.5%, an indel frequency, OFF - R1, Acr start codon AUA of 9.8% and an indel frequency, OFF - R1, Acr start codon AUG of 1.4%. The indel frequency, OFF - R1, Acr start codon CUG was 7.8%, the indel frequency, OFF - R1, Acr start codon GUG was 9.5% and the indel frequency, OFF - R1, Acr start codon UUG was 11.7%. For the same substance, the indel frequency, ON - R1, Acr start codon ACG was 32.5%, the indel frequency, ON - R1, Acr start codon AUA was 25.4% and the indel frequency, ON - R1, Acr start codon AUG was 5.6%. The indel frequency, ON - R1, Acr start codon CUG was 22.3%, the indel frequency, ON - R1, Acr start codon GUG was 26.3% and the indel frequency, ON - R1, Acr start codon UUG was 27%. For the same substance, the inhibition of OFF target editing, Acr start codon CUG was 50%, the inhibition of ON target editing, Acr start codon CUG was 36% and the reduction of SpCas9 editing, Acr start codon AUG was greater than 80%.

Acx137 (AcrVA1, wild type; AcrVA1_mbo) was tested, and the indel frequency (TIDE), OFF - R1, sample EMCV WT IRES - Acx137 was 7.9%, the indel frequency (TIDE), OFF - R1, sample T2A - Acx -137 was 11% and the indel frequency (TIDE), ON - R1, sample EMCV WT IRES - Acx137 was 38.8%. For the same substance, the indel frequency (TIDE), ON - R1, sample T2A - Acx -137 was 40.3%.
